The DeepSol protein solubility set

Experiment: soluble on expression in E. coli; label from the status in PepcDB or PDB records

Row | Sequence | soluble on expression in E. coli
1 | GPGSMLVSYLRLQADRRTRHHMMVDGQINPREWFNWHPKEYQPWYFDRHKFLYEQRQYAQFHHLLCHQVYLKDMLHLMRYPEPYTHIIDCRTSTQKMHRWVPHSLWLPRDEVEYALQLSADEFLDMYGFRKPDKSDDVILLSHNGIYSEQAGWEWKKQFFQHVYNYRGGTNELFGESYSDMNVSDVLSPWKGPFPQSGVFVDKWSKRKVLTRTGPFDRQYEMQDFALPDLELEKARHPEEGPRQNMPFGLQ | not soluble
2 | MATEIDINRIQKDIFIEHKGEPYRVLDYEHVKPGKGQAFVRVKAKNMLTGNVTELTFKASDRIPLADFEQVYATYSYNDGENYYFMNTQTYDMIAVPKEKIEEEAKFLKEGMEVIVFLYKGQPIGIELPKHVELQVVETEPAFKGDTQAGGTKPAKLETGAVIQVPFFVKEGDIVKVDTRTGSYVERVKEAK | soluble
3 | AIASAEAADREAVSGSRPCTPPQTSWFEFLLNPSLLEQHLHSPHPDPSPVQLIFQFLEQASKPSVNEQNQVQPPVDNRRNRTLKLMALKVAAHLRWDLNMLEKGLTIPVLNMLLNELLCVSHVPPGVKHVDLDLSSLPPTTAMAVVFYNRWAIRTIVLSSFPEKQTKPGPHQLNMMNMLQQEKEHTENILSVLREQATDSIMVLEGALSIKKDFYIHL | soluble
4 | LKRYIAGLACAATAVLSAPALASTAHAQAADPISALKSQFSSGRGVNFVDTTKTQGPQGNMVLAKRTGALQFGPSGISASDQTAQLRFKASDFEDLTEGEEDEDFSKFFRGLAKPERVVRIKNTTYVSGGVMGEFMPADKTWVRFPDGLLGFTGAMSQFVNVAEPATLKALLAHATKHGGTYSGKITFGELNKVSPWFRASLGAPTAKTAKIVVSWKLFLGSDRLAKRLVTTYSTAGSAESTVTVDTRYTGWGSKVTVKAPPADQVADLKDLEEGAETATSIPLLGN | soluble
5 | MALTATVRRAELQISDMDRGYYANHSLTLAQHPSETDERLMVRLLAFALFADDRLEFGRGLSNDDEPDLWRRDYTGDPDLWIDLGQPDESRVRKACNRSREAVVIGYGGQATETWWKKHANAMGRYRNLRVIELDSQATEALGALIQRGMRFDVIIQDGEVQMLADHGSVTLTPMVRQAPAE | soluble
6 | SDLFTDGDIFQDIVDAACKRRVPVYIILDEAGVKYFLEMCQDLQLTDFRIRNIRVRSVTGVGFYMPMGRIKGTLSSRFLMVDGDKVATGSYRFTWSSSHVDRNLLLLLTGQNVEPFDTEFRELYAISEEVDLYRQLSLAGRVGLHYSSTVARKLINPKYALVSGCRHPPGEMMRWAARQQWEAGGNPEGQEEGASGGESAWRLESFLKDLVTVEQVLPPVEPIPLGELSQKDGRMVSHMHRDLKPKSREAPSRNGMGEAARGEAAPARRFSSRLFSRRAKRPAAPNGMASSVSTETSEVEFLTGKRPNENSSADISGKTSPSSAKPSNCVIS | soluble
7 | MINARGETMARFTVVIPYYQKQHGVLGRALASVFAQTYQDFDLVIVDDESPYPIDQELAEISQEQKDRIVVIKQANAGPGGARNTGLDHVPDGTDYVAFLDSDDMWTPDHLRNAAFALNTYGGECYWASMQASDEFYYHFAISELEKNEGAARLSEKPLVIELPDLASVMLRNWSFLHLSCMVIGRPLFEKIRFDPALRLAAEDVLFFCDSILASKRTLLCDDAGAMRGMGVNIFHSIDNTSPEFLRQQFNTWVALDTLEGRFSRRPADVASIASYKNTARKQALWSQAGNLKRRRAPQFGLLFKWAMRDPALLRAAFELGAGKIVRSRLEHHHHHH | not soluble
8 | MQQPINYIMNIMHLERDLKRLTSNWSSATGLSLNELRILVYVEQHPGIQIGDVANALNVAKASLAQNIGTLITQGWLKSQPIKQDRRLRVLTLTKAGQDRMKDVDAQLTKSLDTTPATQLADQLSALQL | not soluble
9 | MSGLRVYSTSVTGSREIKSQQSEVTRILDGKRIQYQLVDISQDNALRDEMRTLAGNPKATPPQIVNGNHYCGDYELFVEAVEQDTLQEFLKLA | soluble
10 | MAHHHHHHMEPSTLPYITRDVATEPPTTIAIVSCGGQPPELSGKDETMFAVTEDCVEPTKGWINREGKPLLTVCFMHSFGKCVGRTSSNPATCFQIHIKANVLNALRKHYTNPTRRFFTRTVKAMLSPELRRLLCMRAHKEFKVQYLEYRVSDIFPSTGLLQYEAAYRRWLFSDDTNAEHAGTITVLQCLQFSMTGSCDSSTDCPYIHADLKKAQARDPMLARALRDVSDANQGLPTVSIRVPELLPAGHSSTICPADATYATLTDGANLQSGMPSDPARDFTKVPAFTLVYGEGESGGRCVPLQMHQRESSSSSAGGHANSTYPLSHVPFINQDDPASEMTAAKSQPTSGKNEKASVSGKSGSGWVNNSNEGAGSINNHTGSCGSGTD | not soluble
11 | MAHHHHHHMGGCCKGARCPFSHELVQLPPKGVDASGGYFISGNVANYRAAASTSTASPSSRSFVGRWDDPTASSSTDGLSTLASPSSCCVTTGTSLSAEAKEWVGADSAATSSSANSATASITSVQSLRGAASPTFCVSSSSLRYRSAALRRTAQQVSPLPMPHSQRDSQPQPQQAQTQLQSQQSQKPQPSPPQPQLHQQHKRQYQPPPQPRSVANALSALLPNHSESSAAAETRHTSAAPAHPAATARTVSFTQSSNGSGSTTIAALASFFDMQRVSTGAPSATPSSAASQPSKVVFATRRDDQTPATAPTPATAAPPRYTAACITLAASNQRFDPSPSAPSIPTTATPAPAHGSSRSATTSQHMEAPLPRSREALATGAEHQTATVAKAHVTQSAAPPSAAAAPTSPPQYESRTASSAQTRVMPPAPRSQQQQAAHQAQQLRAQEEAQRQVQIQQQLHAQQQAQQLAQQQAQLQQFQQQIQPQKPPPPQQTVYMLTTSRPPTTSTPPHEGIVAPDQLPLGYTLAYAVSTPTPTASAATPILISEQPSAARPTYTLLSSCPPQSQLQSFQTAKGTVLYATPAQVLTQAAAPSENDAPRLILVNTDGTFTVLQAETLAATAGLGLSPTIMRAH | not soluble
12 | FRVERSQPASQPLTYESGPDEVRAWLEAKAFSPRIVENLGILTGPQLFSLNKEELKKVCGEEGVRVYSQLTMQKAFLEKQQSGSEL | soluble
13 | MVNDLTPHFEDVQAHYDLSDDFFRLFLDPTQTYSCAHFEREDMTLEEAQIAKIDLALGKLGLQPGMTLLDIGCGWGATMRRAIAQYDVNVVGLTLSKNQAAHVQKSFDEMDTPRDRRVLLAGWEQFNEPVDRIVSIGAFEHFGHDRHADFFARAHKILPPDGVLLLHTITGLTRQQMVDHGLPLTLWLARFLKFIATEIFPGGQPPTIEMVEEQSAKTGFTLTRRQSLQPHYARTLDLWAEALQEHKSEAIAIQSEEVYERYMKYLTGCAKLFRVGYIDVNQFTLAK | soluble
14 | ATTPSANQNWRLLRDESAQLRIADVLQRKEQFRPLAKRSFIFPASPQAVWLQVQLPAQKVPSWLWIFAPRVQYLDYYLVQDGQLVRDQHTGESRPFQERPLPSRSYLFSLPVDGKPMTLYVRMTSNHPLMAWFDQIDEAGLVGLE | soluble
15 | MLQCIFLISDSGEVMLEKQLTGHRVDRSICAWFWDQYISQGDSFKALPVIASPTHYLFQIVRDGITFLACSQVEMPPLMAIEFLCRVADVLSEYLGGLNEDLIKDNFIIVYELLDEMIDNGFPLTTEPSILKEMIAPPNLVSKMLSVVTGNASNVSDTLPSGAGSCVPWRPTDPKYSSNEVYVDLVEEMDAIVNRDGELVKCEIYGEVQMNSQLTGFPDLTLSFANPSILEDMRFHPCVRYRPWESHQVLSFVPPDGEFKLMSYRVKKLKNTPVYVKPQITSDSGTCRISVLVGIRSDPGKTIESITLSFQLPHCVSSADLSSNHGTVTILSNKTCTWTIGRIPKDKTPCLSGTLALEPGLERLHVFPTFKLGFKIMGIALSGLRIEKLDLQTIPPRLYKGFRAQTRAGEFDVRL | soluble
16 | TKLSPELLVKLGSEGVLAGVKDSSGDDVSFRRLVMLNKKAGSPLTLLTGHEAVVDGAFIAGADGCVPGLGNVDPAGYVRMWKAAEAGDWATVQKEQDRLAALFEIVFQPIGKVGPAAGVGSFKTALE | not soluble
17 | MGSDKIHHHHHHMRASVSPDIFPPRGHEAKRLSIVDAAAGVFCREGFAGANIDLIAAEAGVSRQTVYNHHGDKEKLFMAVVRDLTDRCNVGIFATIATFPDQPGDLEADLIGFAVRLNQNCICNRDGKFLRKLIQTEGERYPELFAEWREQGPGTTLPAIAARFARLAYGGYLTIDDPDVAARQFFGLVNAELQTTFMLGGTPREDEVVRSATNGVRTFLRAFGKRPAPGSVKKHIALANA | not soluble
18 | MAKKEEYVRKPDWLKIKLNTNETYTGLKKMMREKNLHTVCEEAKCPNIHECWAVRKTATFMILGDVCTRACRFCAVKTGLPNELDLQEPERVAESVEIMGLKHAVITAVARDDLKDGGAGVFAETVRAVRRRNPFCTIEVLPSDMMGNDDNLKTLMDARPNILNHNIETVRRLTPRVRARATYERSLEFLRRAKEMQPDIPTKSSLMIGLGETKDEIIETMDDLRANNVDIMTIGQYLQPTKKHLKVQKYYHPDEFAELKEIALSKGFSHCEAGPLVRSSYHADEQVNEAQVREEARKAAAKS | not soluble
19 | MIIERLVGNLRDLNPLDFSVDHVDLEWFETRKKIARFKTRQGKDIAIRLKDAPKLGLSQGDILFKEEKEIIAVNILDSEVIHIQAKSVAEVAKICYEIGNRHAALYYGESQFEFKTPFEKPTLALLEKLGVQNRVLSSKLDSKERLTVSMPHSEPNFKVSLASDFKVVVK | not soluble
20 | MGSDKIHHHHHHMRADLTPFLNDRLDWNLLRTYLVIMQERSVSRAAARLHVTQPAVSQALRRLEDTLERKLIERRGAHFAPTPAGEAVYRIASDIYGGVSRLETELDDSTADLTGSIRLLTVSRIESPVYDAFLADFHRAYPRIDLQIEVMRSSDILSSLLQKTATAGLGLCRTPHDKLEMRCFLRQRYAIYCGRHHRLFGQTQLRMEDLLAENFVSFTSDQIGDSLSPLTVFRDQKGFTGRIVASSPSLEEVRRLIFAGYGIGCLPEHIVRDDIAQQRLWRLPPDDGLVDVDVFLLWHRDRKMNAAEHAFLDAMERCMQQHSLAERLGM | not soluble
21 | AIANVWLLGRGELRRRHDDVLQLERAFLTDRTGLHFVNARSSEDLLALAESRRAEQQWPVLDAEWISPVGTDTCDDLVWQNLESTLDGRPDTFYSTAGFEAGNTLSGTGELAPGEAFLAYRFWRPVRVYAVQLRAFQADFHPGRPVYPFQVARVGVGCSLQAGMSLSYGADASAPGTSCNYRCFCTTEQQTLVFDDPMVGVYLVICLKGFPQQQLTDRLHYAAVSGIRVFGEPISSPALENELSCLISRGFILDGRDAARWLDLRSAQEHAAPMHIPEDEVI | soluble
22 | MTPVQLKNYLEQLVGNQIKTSTMIWGPPGIGKSSIVAQIAEEGKLRFIDLRLSQLAPTDLRGLPVAIPTSKTKPQTGTSAWYPPEFLPKDGAGILFLDELNMAPPAMQGVAQQLILDRRVGSYEVPTDWFIWAAGNRKEDRASVFEMPAPLANRFLHLDVQPDFESFKQYALEQKYHEQVIAFLSFRPGLIHKLDLQRPAWPSPRSWAIANGLHQVNLDVSPAVGEGCAAEFSAFVQLYKDLPDLEAIFRGQGQNIGFPTEPSSGYASTIGLAVRAKDATAGVNAFHWLTDKADSEWVQLFVTDMAGQLRRAGHLGALSIMAKKEPKLKQFMQGYQELLAILEHHHHHH | soluble
23 | SLSLLIDIVDETGSVSEEMLKEVENLLQFAAEREGVQDQAEVSVTIVSNDDIHQINKEYRGKDAPTDVISFALEEEGEGEIEIVGAEMPPVLGNIIISADRTREQAEEYNHSFKRELGFLAVHGFLHLLGYDHMTKEEEEEMFTKQKELLDAYGLKRS | soluble
